In publication PMC11417369, “DNA sequence and chromatin differentiate sequence-specific transcription factor binding in the human malaria parasite Plasmodium falciparum” one finds binding signal data, which are given here for 36 molecules.

What all share (assay): gcPBM; about 25 ug protein; PBS, 1% milk, 0.2 mg/ml BSA, salmon testes DNA, 0.03% Triton X-100
The target in series [1] is T1, AP2-G D1 (Plasmodium falciparum, UniProt Q8I5I9 2123-2245).
T1 sequence: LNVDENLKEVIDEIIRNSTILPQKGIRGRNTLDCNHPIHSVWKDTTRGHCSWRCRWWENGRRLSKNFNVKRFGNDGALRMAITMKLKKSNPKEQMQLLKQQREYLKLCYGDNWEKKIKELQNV
The following applies: tags: N-terminal GST (pGEX-4T-1), kept; label: surface-attached array probe.

Series [2] addresses T2, SIP2 D1 (Plasmodium falciparum, UniProt C6KSN9 177-235).
T2 sequence: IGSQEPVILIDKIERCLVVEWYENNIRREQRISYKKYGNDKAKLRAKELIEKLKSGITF
The following applies: tags: N-terminal GST (pGEX-4T-1), kept; label: surface-attached array probe.

The target in series [3] is T3, HDP1 homeodomain-like (Plasmodium falciparum, UniProt Q8IKH4 2990-3078).
T3 sequence: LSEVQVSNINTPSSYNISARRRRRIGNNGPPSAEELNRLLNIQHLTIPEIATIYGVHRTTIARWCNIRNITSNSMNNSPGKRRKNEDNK
The following applies: tags: N-terminal GST (pGEX-4T-1), kept; chain copies: 2; label: surface-attached array probe.

Series [4] deals with AP2-I D3 (Plasmodium falciparum, UniProt Q8IJW6 910-1027). The following applies: tags: N-terminal GST (pGEX-4T-1), kept; label: surface-attached array probe.

B1: XGTACX_site8307 (dsDNA)
DNA 1: AAATTATAAAAATGTAGTACAGACAATATATTCGTA
DNA 2: TACGAATATATTGTCTGTACTACATTTTTATAATTT
As to B1, the binding signal in series [1] is 12.7 ln median PBM intensity, better of two orientations.

B2: XGTACX_site7170 (dsDNA)
DNA 1: GTTTAGATAAAAGGGCGTACATCTATTTTTGACTAA
DNA 2: TTAGTCAAAAATAGATGTACGCCCTTTTATCTAAAC
Consider B2, for which the binding signal in series [1] is 12.7 ln median PBM intensity, better of two orientations.

B3: XGTACX_site7325 (dsDNA)
DNA 1: TTTTTTTTATTTTGTTGTACGCTTATTTGTATATAT
DNA 2: ATATATACAAATAAGCGTACAACAAAATAAAAAAAA
Turning to B3, the binding signal in series [1] is 12.8 ln median PBM intensity, better of two orientations.

B4: XGTACX_site7025 (dsDNA)
DNA 1: TTTTTCTTTTTTTGGGGTACAGGGAAATCTATATTT
DNA 2: AAATATAGATTTCCCTGTACCCCAAAAAAAGAAAAA
On to B4, for which the binding signal in series [1] is 12.7 ln median PBM intensity, better of two orientations.

B5: XGTACX_site3301 (dsDNA)
DNA 1: TTTTCTTTTTGTTCGTGTACACACATGAAATTTATA
DNA 2: TATAAATTTCATGTGTGTACACGAACAAAAAGAAAA
Take B5: the binding signal in series [1] is 13 ln median PBM intensity, better of two orientations.

B6: XGTACX_site4956 (dsDNA)
DNA 1: AATAAATGGAAAAGGTGTACACAAAAAAAAGGGAAA
DNA 2: TTTCCCTTTTTTTTGTGTACACCTTTTCCATTTATT
As to B6, the binding signal in series [1] is 12.8 ln median PBM intensity, better of two orientations.

B7: GTGCAC_negctrl_site150 (dsDNA)
DNA 1: TTGTAATAAAGAATTAAAAAAAAATATATACAGGTA
DNA 2: TACCTGTATATATTTTTTTTTAATTCTTTATTACAA
B7: the binding signal in series [2] was 6.9 ln median PBM intensity, better of two orientations; in series [3] it was 6.31 ln median PBM intensity, better of two orientations; in series [4] it was 7.17 ln median PBM intensity, better of two orientations.

B8: XGTACX_site4899 (dsDNA)
DNA 1: TATTCGTGCAATAGTAGTACACTTATAAATTATTCT
DNA 2: AGAATAATTTATAAGTGTACTACTATTGCACGAATA
Turning to B8, in series [1], the binding signal is 12.7 ln median PBM intensity, better of two orientations.

B9: XGTACX_site4340 (dsDNA)
DNA 1: TGATACTTTTTTTGTAGTACTCCTAAAATTATAAAA
DNA 2: TTTTATAATTTTAGGAGTACTACAAAAAAAGTATCA
Turning to B9, the binding signal in series [1] is 12.8 ln median PBM intensity, better of two orientations.

B10: XGTACX_site8267 (dsDNA)
DNA 1: AGATAAATATATTGTAGTACAGGAGCATAAATATAT
DNA 2: ATATATTTATGCTCCTGTACTACAATATATTTATCT
For B10, the binding signal in series [1] was 12.8 ln median PBM intensity, better of two orientations.

B11: XGTACX_site5457 (dsDNA)
DNA 1: ATGGATAACAATATGTGTACACATTTATATCTCCAC
DNA 2: GTGGAGATATAAATGTGTACACATATTGTTATCCAT
B11: the binding signal in series [1] was 12.8 ln median PBM intensity, better of two orientations.

B12: XGTACX_site2835 (dsDNA)
DNA 1: GGGGGGATGAGATATTGTACTTTTTAGGAAAGTGTA
DNA 2: TACACTTTCCTAAAAAGTACAATATCTCATCCCCCC
In the case of B12, the binding signal in series [1] was 13.2 ln median PBM intensity, better of two orientations.

B13: XGTACX_site146 (dsDNA)
DNA 1: GGACGTATTAAAAGGCGTACACTAAATATTTTATGT
DNA 2: ACATAAAATATTTAGTGTACGCCTTTTAATACGTCC
For B13, the binding signal in series [1] is 12.8 ln median PBM intensity, better of two orientations.

B14: XGTACX_site5429 (dsDNA)
DNA 1: ATGGACATCTATTGTTGTACACATTTTCCCATAACA
DNA 2: TGTTATGGGAAAATGTGTACAACAATAGATGTCCAT
On to B14, for which the binding signal in series [1] is 13.1 ln median PBM intensity, better of two orientations.

B15: XGTACX_site7727 (dsDNA)
DNA 1: GGTGTATGTTAAAGGAGTACATATATATATATATAT
DNA 2: ATATATATATATATATGTACTCCTTTAACATACACC
On to B15, for which the binding signal in series [1] is 12.7 ln median PBM intensity, better of two orientations.

B16: XGTACX_site7745 (dsDNA)
DNA 1: GGGGACGCGGGTGGGGGTACTCACACTATGCAAAAT
DNA 2: ATTTTGCATAGTGTGAGTACCCCCACCCGCGTCCCC
Regarding B16, the binding signal in series [1] is 13 ln median PBM intensity, better of two orientations.

B17: GTGCAC_negctrl_site227 (dsDNA)
DNA 1: ATAGAATAAATTTTGTCATTTATTCCTTATATATAA
DNA 2: TTATATATAAGGAATAAATGACAAAATTTATTCTAT
B17: the binding signal in series [2] was 6.84 ln median PBM intensity, better of two orientations; in series [3] it was 6.37 ln median PBM intensity, better of two orientations; in series [4], 7.14 ln median PBM intensity, better of two orientations.

B18: XGTACX_site718 (dsDNA)
DNA 1: GTATTAATTTTAAGGTGTACGCAAAAAATTTAATTT
DNA 2: AAATTAAATTTTTTGCGTACACCTTAAAATTAATAC
For B18, the binding signal in series [1] is 13.1 ln median PBM intensity, better of two orientations.

B19: GTGCAC_negctrl_site656 (dsDNA)
DNA 1: ATTATTTATTTATTTTTTTTTTTTTTCTCTTTTCCT
DNA 2: AGGAAAAGAGAAAAAAAAAAAAAATAAATAAATAAT
For B19, the binding signal was 6.87 ln median PBM intensity, better of two orientations in series [2]; 6.27 ln median PBM intensity, better of two orientations in series [3]; 6.88 ln median PBM intensity, better of two orientations in series [4].

B20: XGTACX_site6072 (dsDNA)
DNA 1: CGTTTATATTTTAACTGTACTCAAAAAGTGCATTGT
DNA 2: ACAATGCACTTTTTGAGTACAGTTAAAATATAAACG
As to B20, in series [1], the binding signal is 12.7 ln median PBM intensity, better of two orientations.

B21: GTGCAC_negctrl_site246 (dsDNA)
DNA 1: TTAATTCTATACATAAATTATGTTTACATAAAGAAT
DNA 2: ATTCTTTATGTAAACATAATTTATGTATAGAATTAA
With B21, the binding signal was 6.9 ln median PBM intensity, better of two orientations in series [2]; 6.34 ln median PBM intensity, better of two orientations in series [3]; 7.16 ln median PBM intensity, better of two orientations in series [4].

B22: XGTACX_site2251 (dsDNA)
DNA 1: GTGTAAAAATTAAAGTGTACACATATATATATATAT
DNA 2: ATATATATATATATGTGTACACTTTAATTTTTACAC
For the molecule B22, the binding signal in series [1] is 12.8 ln median PBM intensity, better of two orientations.

B23: XGTACX_site3444 (dsDNA)
DNA 1: TATATTATATATTTATGTACGTATTTGTAAAAAGAT
DNA 2: ATCTTTTTACAAATACGTACATAAATATATAATATA
For B23, the binding signal in series [1] was 12.8 ln median PBM intensity, better of two orientations.

B24: XGTACX_site6887 (dsDNA)
DNA 1: TATTTTCCATGAGGTAGTACACATTAAAAAATCGTT
DNA 2: AACGATTTTTTAATGTGTACTACCTCATGGAAAATA
For the molecule B24, the binding signal in series [1] is 12.8 ln median PBM intensity, better of two orientations.

B25: XGTACX_site820 (dsDNA)
DNA 1: ACAATTGAAGAAATACGTACATAAAGAAAAACTAGT
DNA 2: ACTAGTTTTTCTTTATGTACGTATTTCTTCAATTGT
For B25, in series [1], the binding signal is 12.9 ln median PBM intensity, better of two orientations.

B26: XGTACX_site6396 (dsDNA)
DNA 1: CCTATAATTAGGGGTAGTACACAAAAAAAAAAAAAA
DNA 2: TTTTTTTTTTTTTTGTGTACTACCCCTAATTATAGG
Turning to B26, the binding signal in series [1] was 12.8 ln median PBM intensity, better of two orientations.

B27: XGTACX_site4991 (dsDNA)
DNA 1: TAAAATAATATATGGTGTACACAAAAGTATAAATAA
DNA 2: TTATTTATACTTTTGTGTACACCATATATTATTTTA
B27: in series [1], the binding signal was 13.2 ln median PBM intensity, better of two orientations.

B28: XGTACX_site7607 (dsDNA)
DNA 1: AATATACAATAAAGGTGTACACATATATGATGCAAG
DNA 2: CTTGCATCATATATGTGTACACCTTTATTGTATATT
On to B28, for which the binding signal in series [1] was 12.8 ln median PBM intensity, better of two orientations.

B29: XGTACX_site6231 (dsDNA)
DNA 1: ATGTTTTATAAAAGGCGTACACATATATTTAAGTAA
DNA 2: TTACTTAAATATATGTGTACGCCTTTTATAAAACAT
Consider B29, for which the binding signal in series [1] is 13.5 ln median PBM intensity, better of two orientations.

B30: XGTACX_site3586 (dsDNA)
DNA 1: TATACATACATTAGACGTACACATTTTACCTACACC
DNA 2: GGTGTAGGTAAAATGTGTACGTCTAATGTATGTATA
Take B30: in series [1], the binding signal was 12.8 ln median PBM intensity, better of two orientations.

B31: XGTACX_site1704 (dsDNA)
DNA 1: CTCGTATATATAATACGTACATATTATATATATATA
DNA 2: TATATATATATAATATGTACGTATTATATATACGAG
Take B31: in series [1], the binding signal is 12.9 ln median PBM intensity, better of two orientations.

B32: XGTACX_site3746 (dsDNA)
DNA 1: ATATAAAATATTACGTGTACACATAAATAAAAATAA
DNA 2: TTATTTTTATTTATGTGTACACGTAATATTTTATAT
For the molecule B32, in series [1], the binding signal was 13 ln median PBM intensity, better of two orientations.

B33: GTGCAC_site10021 (dsDNA)
DNA 1: ATAAAATATATATTAGTGCACTAAAGGAAAAAAAAT
DNA 2: ATTTTTTTTCCTTTAGTGCACTAATATATATTTTAT
Regarding B33, the binding signal is 10.4 ln median PBM intensity, better of two orientations in series [2]; 11.6 ln median PBM intensity, better of two orientations in series [3]; 12.4 ln median PBM intensity, better of two orientations in series [4].

B34: XGTACX_site4176 (dsDNA)
DNA 1: ATAAATTTAAATAGGAGTACACAGCTTTATATTTTG
DNA 2: CAAAATATAAAGCTGTGTACTCCTATTTAAATTTAT
Regarding B34, the binding signal in series [1] was 13 ln median PBM intensity, better of two orientations.

B35: XGTACX_site3596 (dsDNA)
DNA 1: AAGGAAAATTTTTGGTGTACACAAAAAAATCCAAAA
DNA 2: TTTTGGATTTTTTTGTGTACACCAAAAATTTTCCTT
For the molecule B35, the binding signal in series [1] is 12.8 ln median PBM intensity, better of two orientations.

B36: XGTACX_site96 (dsDNA)
DNA 1: TGGAACCATAAAAAGTGTACACATATAAAAAATATG
DNA 2: CATATTTTTTATATGTGTACACTTTTTATGGTTCCA
For B36, in series [1], the binding signal was 12.8 ln median PBM intensity, better of two orientations.
